Measurements taken from PMC6393246, “Structural identification of conserved RNA binding sites in herpesvirus ORF57 homologs: implications for PAN RNA recognition” (Nucleic Acids Research, 2018).

Assays:
ksORF57 68-178 = target: T1, ksORF57 68-178 (Kaposi's sarcoma-associated herpesvirus …, UniProt Q2HR75 68-178); experiment: NMR HSQC; equimolar, 50 uM protein; substantial broadening; SPR: 20 mM HEPES, 250 mM NaCl, 0.05% Tween-20, pH 7.4, 25 C, protein up to 1 uM; NMR: 20 mM Na phosphate, 50 mM NaCl, 50 mM L-Arg, 50 mM L-Glu, 1 mM EDTA, 2 mM; settings: protein: recombinant; tags: His-tag (purification), 15N labelled
T1 sequence: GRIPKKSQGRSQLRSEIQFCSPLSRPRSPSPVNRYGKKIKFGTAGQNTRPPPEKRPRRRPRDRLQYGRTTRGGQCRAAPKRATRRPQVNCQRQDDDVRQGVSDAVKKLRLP

hvsORF57Δ146 [1] = target: T2, hvsORF57Δ146 (herpesvirus saimiri (HVS), UniProt P13199 146-417); experiment: SPR; SPR: 20 mM HEPES, 250 mM NaCl, 0.05% Tween-20, pH 7.4, 25 C, protein up to 1 uM; NMR: 20 mM Na phosphate, 50 mM NaCl, 50 mM L-Arg, 50 mM L-Glu, 1 mM EDTA, 2 mM; settings: protein: recombinant; tags: thioredoxin/Strep tag cleaved by HRV3C; residue 145 is cloning Gly; chain copies: 2; label: 5'-biotin
UL69 200-540 = target: T3, UL69 200-540 (HCMV, UniProt P16749 200-540); experiment: as above; settings: protein: recombinant; tags: Strep-tag (purification); chain copies: 4; label: 5'-biotin
T3 sequence: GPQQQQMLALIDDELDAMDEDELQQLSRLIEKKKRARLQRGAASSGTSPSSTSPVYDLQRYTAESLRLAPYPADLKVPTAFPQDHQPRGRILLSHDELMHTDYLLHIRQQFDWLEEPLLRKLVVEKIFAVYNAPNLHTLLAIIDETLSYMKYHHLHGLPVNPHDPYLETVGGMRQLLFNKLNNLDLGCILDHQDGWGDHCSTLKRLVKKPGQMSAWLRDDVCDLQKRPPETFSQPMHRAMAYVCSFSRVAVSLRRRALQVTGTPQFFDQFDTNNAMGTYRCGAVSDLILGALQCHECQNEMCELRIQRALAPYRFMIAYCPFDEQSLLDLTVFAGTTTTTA

ksORF57Δ153 = target: T4, ksORF57Δ153 (Kaposi's sarcoma-associated herpesvirus …, UniProt Q2HR75 153-455); experiment: as above; settings: protein: recombinant; tags: thioredoxin/Strep tag cleaved by HRV3C; chain copies: 2; label: 5'-biotin
T4 sequence: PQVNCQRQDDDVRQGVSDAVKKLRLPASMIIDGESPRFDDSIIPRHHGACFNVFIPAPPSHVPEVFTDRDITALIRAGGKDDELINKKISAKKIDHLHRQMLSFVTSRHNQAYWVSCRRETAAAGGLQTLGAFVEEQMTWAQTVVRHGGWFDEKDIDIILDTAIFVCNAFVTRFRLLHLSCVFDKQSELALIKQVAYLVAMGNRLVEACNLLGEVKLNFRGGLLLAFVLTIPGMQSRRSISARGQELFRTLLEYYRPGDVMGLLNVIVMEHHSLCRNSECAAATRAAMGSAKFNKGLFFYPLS

ICP27Δ241 = ICP27Δ241 (HSV-1, UniProt P10238 241-512); experiment: as above; settings: protein: recombinant; tags: Strep-tag (purification); label: 5'-biotin
[2] = target: the molecule itself; experiment: SEC-MALS; 0.5 ml at 1 mg/ml on Superdex 200 10/300GL, gel filtration buffer (20 mM HEPES, 150 mM NaCl, 50 mM L-Arg, 50 mM L-Glu, 1 mM TCEP, pH 7.4); homo-dimer
hvsORF57Δ146 [3] = target: T2, hvsORF57Δ146; experiment: X-ray crystallography; Zn2+ in protein; Mg2+/Ca2+ in crystallization; SPR: 20 mM HEPES, 250 mM NaCl, 0.05% Tween-20, pH 7.4, 25 C, protein up to 1 uM; NMR: 20 mM Na phosphate, 50 mM NaCl, 50 mM L-Arg, 50 mM L-Glu, 1 mM EDTA, 2 mM; settings: protein: recombinant; tags: thioredoxin/Strep tag cleaved by HRV3C; residue 145 is cloning Gly; chain copies: 2
hvsORF57Δ146 [4] = target: T2, hvsORF57Δ146; experiment: X-ray crystallography; same U-bend interaction as PAN17; data not shown; SPR: 20 mM HEPES, 250 mM NaCl, 0.05% Tween-20, pH 7.4, 25 C, protein up to 1 uM; NMR: 20 mM Na phosphate, 50 mM NaCl, 50 mM L-Arg, 50 mM L-Glu, 1 mM EDTA, 2 mM; settings: protein: recombinant; tags: thioredoxin/Strep tag cleaved by HRV3C; residue 145 is cloning Gly; chain copies: 2

Question: Does CAGUCGCGAAGAGG (ssRNA) [14merS] bind (ksORF57 68-178)?
Answer: binds

Question: Does CACCUAUGGAUUUUGUG (ssRNA) [PAN17 (5'-biotin)] bind (hvsORF57Δ146 [1])?
Answer: binds

Question: Does CACCUAUGGAUUUUGUG (ssRNA) [PAN17 (5'-biotin)] bind (UL69 200-540)?
Answer: binds

Question: Does CACCUAUGGAUUUUGUG (ssRNA) [PAN17 (5'-biotin)] bind (ksORF57Δ153)?
Answer: binds

Question: Does CACCUAUGGAUUUUGUG (ssRNA) [PAN17 (5'-biotin)] bind (ICP27Δ241)?
Answer: no binding

B1: HVS ORF57 residues 146–417 (hvsORF57Δ146) (domain or fragment)
chain: PLLKLFDISILPKSGEPKLFLPVPSLPCQEAEKTNDKYVLAMAQRAMHDVPISSKQLTANLLPVKFKPLLSIVRYTPNYYYWVSMRKETIASANLCTVAAFLDESLCWGQQYLKNDFIFSENGKDIILDTSSALLSQLVHKIKMLPFCHCLMQTTPQDHIVKQVCYLIASNNRILDAVRYLQTSVIKSPIVLLLAYAVCLPAAIICTKNETQLYSHCMRILKEYRPGDVMNILHESLTQHLNKCPSSTCAYTTRAIVGTKANTTGLFFLPTQ
notes: ORF57 (ICP27 homolog) of herpesvirus saimiri (HVS), residues 146-417, the C-terminal ICP27-homology domain; Selenomethionine-derivatised protein was used for crystals of the free form; native protein for the RNA complex and SEC-MALS; also called C-terminal IHD of hvsORF57; C-terminal ICP27-homology domain of HVS ORF57; source: E. coli T7 express LysY, purified (StrepTrap HP, HRV3C cleavage, …)
Question: B1 was tested. Which “stoichiometry N” value [2] did it give?
Answer: 2

Question: Does CACCUAUGGAUUUUGUG (ssRNA) [PAN17 (crystal)] bind (hvsORF57Δ146 [3])?
Answer: binds

Question: Does GAUUUUGU (ssRNA) [PAN 42-49] bind (hvsORF57Δ146 [4])?
Answer: binds

Question: Does CAGUCGCGAAGAGG (ssRNA) [14merS (5'-biotin)] bind (UL69 200-540)?
Answer: binds

Question: Does CAGUCGCGAAGAGG (ssRNA) [14merS (5'-biotin)] bind (ICP27Δ241)?
Answer: no binding

B2: KSHV ORF57 residues 153–455 (ksORF57Δ153) (domain or fragment)
chain: T4 sequence
notes: ORF57/Mta (ICP27 homolog) of Kaposi's sarcoma-associated herpesvirus (KSHV), residues 153-455, the C-terminal ICP27-homology domain; also called C-terminal IHD of ksORF57; source: E. coli T7 express LysY, purified (StrepTrap HP, HRV3C cleavage, Superdex 75); not shown: thioredoxin, N-terminal, cleaved
Question: How did the “stoichiometry N” value [2] turn out when B2 was run?
Answer: 2

Question: Does CCGUCCCCGCCGCU (ssRNA) [14mer1 (5'-biotin)] bind (hvsORF57Δ146 [1])?
Answer: no binding

Question: Does CCGUCCCCGCCGCU (ssRNA) [14mer1 (5'-biotin)] bind (UL69 200-540)?
Answer: binds

Question: Does CCGUCCCCGCCGCU (ssRNA) [14mer1 (5'-biotin)] bind (ksORF57Δ153)?
Answer: no binding

Question: Does CCGUCCCCGCCGCU (ssRNA) [14mer1 (5'-biotin)] bind (ICP27Δ241)?
Answer: no binding
